Here are results for five molecules from paper PMC8633023, “Crystal structures of phosphatidyl serine synthase PSS reveal the catalytic mechanism of CDP-DAG alcohol O-phosphatidyl transferases” (Nature Communications, 2021).

Series [1] deals with T1, MjPSS (phosphatidyl serine synthase, PS synthase) (Methanocaldococcus jannaschii, UniProt Q58609).
T1 construct: gene pssA; tag used for MST labelling), E. coli C41(DE3) membranes, solubilised in decyl maltoside; dimer
The experiment in a line: X-ray crystal structure (SeMet protein, […] Å); MST also shows binding. The settings on record: open state with CDP-DAG, Ca2+, Mg2+; Ser1 catalytic site, Ser2 judged artefact; in 7POW covalent to CDP-DAG in one protomer.

Series [2] addresses T1, MjPSS (phosphatidyl serine synthase, PS synthase). The experiment in a line: activity measured as a function of citrate; crystal structure ([…] Å). In kind it is biochemical. The conditions noted are these: reversible; reversed by more serine, blocks or competes with serine; structural site near Asn109, Lys111, Lys157, called non-specific by authors.
Substrate in the series “purified protein”: N[C@@H](CO)C(=O)O
The experiment in a line: purified protein. The conditions noted are these: co-substrate CDP-DAG, co-purified Mg2+ and Ca2+, 50 mM Tris-HCl pH 7.0, 50 mM NaCl, 0.2% DM, temperature of this assay not given.

Series [3] deals with the molecule itself. The experiment in a line: crystal structure; crystals grown in meso (lipidic cubic / sponge phase, monoolein with 2% (w/w) CDP-DAG), 292 K; two molecules in the asymmetric unit.

As for `N[C@@H](CO)C(=O)O` [L-serine], the “X-ray crystal structure (SeMet protein, 1.85 Å); MST also shows binding” value in series [1] was 7B1L for the open state with CDP-DAG and two serines.

Take `O=C(O)CC(O)(CC(=O)O)C(=O)O` [citrate]: in series [2], the inhibition entry is “binding of citrate reversibly inhibits MjPSS, and that the inhibition is reversed by addition of more serine”.

B1: MjPSS (phosphatidyl serine synthase, PS synthase) (Methanocaldococcus jannaschii DSM 2661) (protein)
chain: MFSIRKIITISDYVTMLNIITGLLAILLNSFSLIYLSIIFDSLDGYVARKTGTVSDFGAELDSISDVVSFGVAPAYLLYNNFESNLALISAIIFCLCGALRLARFGILNVKGFIGLPIPAGALLLVGFCQLINSYLINSILAILIGLLMISDIKYPKYPNKIFIYIFAVSLCLAIVGIPHFALMLCLIYAIYGIIKYIRGD
For orientation: Km means the substrate concentration at which the rate is half of its maximum. The term kcat denotes the maximal rate divided by the concentration of active sites. Regarding B1, in “purified protein”, the Km turned out to be 460 ± 120 µM and the kcat was found to be 0.123 ± 0.007 s⁻¹.

B2: Seleno-methionine (SeMet) MjPSS (enzyme, Methanocaldococcus jannaschii)
chain: B1 chain
modifications: selenomethionine in place of methionine
notes: phosphatidyl serine synthase (CDP-DAG alcohol O-phosphatidyl transferase, EC 2.7.8.8) of Methanocaldococcus jannaschii; same construct as m1, SeMet substituted; Same construct as m1; also called SeMet-labelled protein; SeMet substituted protein; source: E. coli, M9 minimal medium with SeMet, IPTG-induced; purified as native MjPSS (final SEC on Superdex 200 Increase)
As usually defined, the stoichiometry N is a count of units in the complex or per binding partner. In the case of B2, the “stoichiometry N” value in series [3] stood at 2.

B3: phosphatidyl serine synthase from Methanocaldococcus jannaschii (native MjPSS) (enzyme)
chain: B1 chain
notes: phosphatidyl serine synthase (CDP-DAG alcohol O-phosphatidyl transferase, EC 2.7.8.8) of Methanocaldococcus jannaschii; the vector pSKB2LNB adds an N-terminal His6-Tag and a PreScission site; 400 protein residues are modelled for the two protomers; also called PS synthase; wild-type MjPSS; source: E. coli C41-(DE3), purified from membranes (DM-solubilised, Co2+ chelating Sepharose, size-exclusion …)
Take B3: the “stoichiometry N” value in series [3] worked out at 2.
